Assay results reported in paper PMC9091645.

Substrate: CCCC(=O)Oc1ccc([N+](=O)[O-])cc1
Assay: initial rates of p-nitrophenyl butyrate hydrolysis
Format: biochemical, Rhizopus arrhizus
Settings: 30 °C, 25 mM phosphate buffer pH 8, substrate 10-100 mM

B1: ROL (Rhizopus oryzae lipase; wild type WROL) (Rhizopus arrhizus) (protein)
chain: SDGGKVAAATTAQIQEFTKYAGIAATAYCRSVVPGNKWDCVQCQKWVPDGKIITTFTSLLSDTNGYVLRSDKQKTIYLVFRGTNSFRSAITDIVFNFSDYKPVKGAKVHAGFLSSYEQVVNDYFPVIQEQLTANPTYKVIVTGHSLGGAQALLAGMDLYQREPRLSPKNLSIFTVGGPRVGNPTFAYYVESTGIPFQRTVHKRDIVPHVPPQSFGFLHPGVESWIKSGTSNVQICTSEIETKDCSNSIVPFTSLLDHLSYFDINEGSCL
Km: 5.56 mM
Vmax: 2.34 µmol/min/mg
kcat: 1.25 s⁻¹
kcat/Km: 220 M⁻¹ s⁻¹
